Test results reported in PMC8221060, “Interplay between chromophore binding and domain assembly by the B12-dependent photoreceptor protein, CarH†” (Chemical Science, 2021).

Key:
[1] = biological target: TtCarH G192Q variant (Thermus thermophilus) (UniProt Q53W62); assay: native MS; native ion mobility mass spectrometry; G192Q without AdoCbl; monomer to dimer
[2] = biological target: TtCarH G192Q variant (Thermus thermophilus) (UniProt Q53W62); assay: native MS; native ion mobility mass spectrometry; G192Q with increasing molar ratios of AdoCbl; monomer to dimer
[3] = biological target: TtCarH G192Q variant (Thermus thermophilus) (UniProt Q53W62); assay: stopped-flow fluorescence; quenching of protein emission (excitation at 280 nm) after rapid mixing of apo-protein with AdoCbl at saturating concentrations (≥10×); kapp of the second phase against protein concentration, fit linearly; monomer to dimer step taken as rate-limiting
[4] = biological target: the molecule itself; assay: native MS; native ion mobility mass spectrometry; WT TtCarH, 10 μM apo-protein, no B12 added; monomer to dimer
[5] = biological target: the molecule itself; assay: native MS; native ion mobility mass spectrometry; WT TtCarH, 10 μM apo-protein, with AdoCbl from sub-stoichiometric quantities to a two-fold excess
[6] = biological target: the molecule itself; assay: stopped-flow fluorescence; quenching of protein emission (excitation at 280 nm) after rapid mixing of apo-protein with AdoCbl at saturating concentrations (≥10×); kapp of the second phase against protein concentration, fit linearly; monomer to dimer step taken as rate-limiting

TtCarH G192Q variant (from UniProt Q53W62 1-285) (natural protein)
stoichiometry N [1]: 2
stoichiometry N [2]: 2
kon [3]: 45100 M⁻¹ s⁻¹

B1: CarH from Thermus thermophilus (TtCarH), wild type (natural protein)
chain: MTSSGVYTIAEVEAMTGLSAEVLRQWERRYGFPKPRRTPGGHRLYSAEDVEALKTIKRWLEEGATPKAAIRRYLAQEVRPEDLGTGLLEALLRGDLAGAEALFRRGLRFWGPEGVLEHLLLPVLREVGEAWHRGEIGVAEEHLASTFLRARLQELLDLAGFPPGPPVLVTTPPGERHEIGAMLAAYHLRRKGVPALYLGPDTPLPDLRALARRLGAGTVVLSAVLSEPLRALPDGALKDLAPRVFLGGQGAGPEEARRLGAEYMEDLKGLAEALWLPRGPEKEAI
notes: CarH, B12-dependent photoreceptor and transcriptional regulator of Thermus thermophilus; Written as the monomer, which associates with itself to dimers and tetramers; The cofactor (AdoCbl or MeCbl, small molecules) was added or left out as told in each assay; also called WT TtCarH; WT
stoichiometry N [4]: 2
stoichiometry N [5]: 4
kon [6]: 50400 ± 2300 M⁻¹ s⁻¹
